How the values were obtained:
IgE Fc Cε2–4 (human) = test: SPR; Biacore T200; IgE Fc immobilized (110 RU) on CM5 by NHS/EDC; 026 sdab injected 0.003-50 µg/ml, 25 µl/min; 25 °C; 10 mM monosodium phosphate, 40 mM disodium phosphate, 100 mM NaCl, pH 7.4, 0.01% Tween-20; 1:1 binding model
[1] = target: IgE on the surface of patients' basophils (human (endogenous in patients' blood)); test: flow cytometry on cells; EDTA blood of allergic donors preincubated with 026 sdab (0 to 45 µmol/l) for up to 60 min in IL-3-containing stimulation buffer; remaining surface IgE on basophils stained with anti-IgE-FITC
Sequence of IgE on the surface of patients' basophils (human (endogenous in patients' blood)) (P01854 whole entry): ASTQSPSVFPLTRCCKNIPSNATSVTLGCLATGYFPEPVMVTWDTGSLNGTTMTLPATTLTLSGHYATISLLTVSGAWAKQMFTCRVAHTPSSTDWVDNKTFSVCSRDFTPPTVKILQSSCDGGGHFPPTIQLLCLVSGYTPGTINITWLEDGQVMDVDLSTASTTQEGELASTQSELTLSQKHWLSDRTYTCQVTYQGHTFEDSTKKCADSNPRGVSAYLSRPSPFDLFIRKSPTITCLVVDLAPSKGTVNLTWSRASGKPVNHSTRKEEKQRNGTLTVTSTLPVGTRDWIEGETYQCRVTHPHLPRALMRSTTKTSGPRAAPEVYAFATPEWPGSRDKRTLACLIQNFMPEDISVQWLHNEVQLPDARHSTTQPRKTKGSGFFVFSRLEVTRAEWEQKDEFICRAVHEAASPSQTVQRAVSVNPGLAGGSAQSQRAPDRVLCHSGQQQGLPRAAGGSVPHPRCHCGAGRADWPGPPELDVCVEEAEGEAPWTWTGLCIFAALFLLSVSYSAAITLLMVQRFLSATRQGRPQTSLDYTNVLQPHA

B1: 026 sdab (VHH)
VHH: EVQLLESGGGLVQPGGSLRLSCAASGFTFGNYDMAWVRQAPGKRPEWVSSIDTGGDITHYADSVKGRFTISRDNAKNTLYLQMNSLRPEDTAVYWCATDEEYALGPNEFDYYGQGTLVTVSS
IgE Fc Cε2–4 (human)
  Kd: 1.4 nM
[1]
  surface IgE left on basophils after 15 min with 026 sdab: 30%
  surface IgE left on basophils after prolonged incubation with 026 sdab: 20%

— publication PMC5750235
